# Columns and labels:
# [1] = biological target: variant E (trypsin mutant of SEQ ID NO:5) (human); assay: cell-based or functional assay; conditions: scale: % of the serum concentration of anti-plasmin
# [2] = biological target: variant D (trypsin mutant of SEQ ID NO:5) (human); assay: cell-based or functional assay; conditions: scale: % of the serum concentration of anti-plasmin
# Chain of variant D (trypsin mutant of SEQ ID NO:5) (human) (chain, as listed by the source mutant limits assumed): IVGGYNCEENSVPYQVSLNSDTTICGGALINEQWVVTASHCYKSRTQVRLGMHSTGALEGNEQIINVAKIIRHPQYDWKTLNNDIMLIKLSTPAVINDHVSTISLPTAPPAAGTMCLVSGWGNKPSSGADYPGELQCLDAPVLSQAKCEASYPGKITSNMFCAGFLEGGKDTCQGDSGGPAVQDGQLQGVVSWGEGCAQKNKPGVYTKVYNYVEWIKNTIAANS
# Chain of variant E (trypsin mutant of SEQ ID NO:5) (human) (chain, as listed by the source mutant): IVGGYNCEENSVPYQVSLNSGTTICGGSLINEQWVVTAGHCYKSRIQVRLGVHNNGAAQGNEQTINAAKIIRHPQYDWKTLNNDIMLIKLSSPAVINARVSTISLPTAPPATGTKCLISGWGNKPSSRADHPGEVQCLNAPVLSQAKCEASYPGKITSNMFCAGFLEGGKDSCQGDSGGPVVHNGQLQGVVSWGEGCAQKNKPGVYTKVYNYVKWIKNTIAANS
substance,measurement,setting,value
antiplasmin (from UniProt P08697 40-491),IC50 (inhibitor concentration at 50% residual proteolytic activity; cleavage of fluorescently labelled TNF-alpha),[1],40
same,IC50 (inhibitor concentration at 50% residual proteolytic activity; cleavage of fluorescently labelled TNF-alpha),[2],5
